In PMC6615313 one finds binding data, which are given here for three sequences.

This data set relates to T1, SigL (sigma54) (Clostridium beijerinckii NCIMB 8052), ORF:07123114.
T1 sequence: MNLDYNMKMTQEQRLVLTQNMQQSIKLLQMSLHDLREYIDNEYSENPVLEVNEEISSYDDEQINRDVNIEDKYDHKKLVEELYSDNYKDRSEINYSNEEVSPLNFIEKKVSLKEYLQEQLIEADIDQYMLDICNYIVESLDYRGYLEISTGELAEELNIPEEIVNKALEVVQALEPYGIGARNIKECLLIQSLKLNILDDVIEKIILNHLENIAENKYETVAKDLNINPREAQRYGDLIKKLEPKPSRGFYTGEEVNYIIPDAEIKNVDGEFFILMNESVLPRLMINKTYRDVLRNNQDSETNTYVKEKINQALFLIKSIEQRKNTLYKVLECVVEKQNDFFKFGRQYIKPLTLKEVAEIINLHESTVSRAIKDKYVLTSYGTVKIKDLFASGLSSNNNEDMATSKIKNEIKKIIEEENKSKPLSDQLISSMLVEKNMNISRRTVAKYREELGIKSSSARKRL
Description: EMSA. As to conditions: not stated; EMSA as described previously (ref 21), Cy5-labeled DNA, SigL up to 1500 nM.

As for “AGCCAGTGGCGATAAGGGTGTACAAAATATAGACATAAATAAAATTGATATATTTAGGAATTGATTACGAAAACCACAATATATAAGGTTTCATGGAAAAAATATGATTGGCATGCTTATTGCTAATAATAAAATTAACGGGAGTAGTAAGTGAACTAATATATATAACTTAATTTTTCCACAATCTTTAGTGCAATGCTATTTGCTATTTAAGGACTTATCGCCACTGGCT (double strand) [crt (crt-bcd-etfAB-moaC) promoter]”, the binding result is given as “binds”.

For the sequence “AGCCAGTGGCGATAAGGGGGAAAATCTTTAAAAGTGTACAAAAAAAACACATATTTTTCTGATTTATTTTATTTAAAAAGGTAAATAGAATTAATAGTAAACAGTTTAAAAAAATAATATTTAAAGAGTTTAGTAGATTTGGAAAAGGTTTTCGACTTTTGGAAAGAAACTTGGCATCCTAATTGCTCTATAAAAAGGTATGAGGAGGGATTATGACTTATCGCCACTGGCT (double strand) [cotX (cotX-gntT) promoter]”, the binding entry is “binds”.

“AGCCAGTGGCGATAAGCCAGAAAAGAGTAAGATTCTCAAAATAGGACACTAAGTATGTGTCATAATGGCACATAGTGATTTTAAATGTCTTTTTAACAGGTTTCTTGTTTTTGGTATGGCTTTTGCTTATAAAATATAGTGAATATATTAACAGGTATATGTAAATTTTAATATTGCCATACTATTATAAAAAAGGAGAGATAATTCTTATCGCCACTGGCT (double strand) [butA promoter]”: the binding entry is on record as “binds”.
